Test: soluble fraction after stress (log2 fold change); higher = more stays soluble; pooled small domains, quantitative proteomics
Conditions: stress: pH 4
Summary of the method: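 With high-throughput quantitative proteomics, pooled custom libraries of small protein domains were measured after pH 4 stress. Each domain's soluble amount after the stress gives a fold change taken as aggregation propensity. Higher log2 values mean more of the domain stayed soluble.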

Sequence	soluble fraction (log2)
HMDTERLYAYAWQTHLKQFGLNISEEEIRQFVGVDDRIVHSFYAKTVPLDDFENTMFSLGEIIQQSL	-2.08
HMGIVTMPGQGSKMRFDFDATGDLPSSTSWRGMFAYANNTKRAYVSTGTTMGGYNGWRQLIAMDEYGNYQT	0.22
HMGDVPESLVEKAGHSINAKIISAWGMTETGASTMTRPQDDPERAIYSDGVVLPLMDVRVVNDAGLA	-0.271
HMHAPIAELKKVFKEEFADQEVTVRQLAGSVLLSGNVKTAELRENLESVAKQFFPRVINNLKLI	0.0685
HMKVSNWYFNGAPSATTPPTSQWTTEKDKKAHIGDTFTSLDKSPSPNAGKSWRYTPSYTWEEIV	0.0965
HMKVSRTAVKLHHANAVEVAKKLQPLFVVGDVQIEPVKDAGIILLKGPASTLADLRESIVQMDHTA	-0.309
HMTAVPADVETVTGFTALDRAGLDTLLARLGLAMDLEDLSFLQAYFRDTERRDPTLTEIRVVDTYWSDH	-1.44
HMKKLTGVQKAAILMIALGPDISSSIIKRLPENMVERITYEIANMTKITAQQRNDILKEFMDMTVAQ	-0.479
HMKGERHNKILELIQQHAIDRQEDLLRYLKEAGFQVTQATVSRDIRELHLVKVAAGGGQYRYVSAAAAS	-0.255
HMPEFKDMLKFFRMREHLSQSELAEKLGISASTVSMYEVGRRQPDFETEEKIADFFNTDLNTLRG	-0.169
HMTFENMFIENSGETLDREFLVENLRGISWQSYDRSVDVLVSRLRGKLGETPNNTRFIKTIHGVGYKFIGE	-0.472
HMLAAGTPLTVVTESSNLNIRQEPSTEAAVVGKAAKGEIVTLVEQTSGEWWKVSTKDGEEGYAYSRYL	-0.809
HMDRENNITAGREILEKELSRLALNMKMVNLQDYAARFNVKHSDDILAGIGAGDIRPAHIVNAIAEKLT	-0.304
HMWPTPRTWSALMNELNLYKENHGYANIVDIPSEKIRRMADGIIGEDMAVRYVAFLQSHASS	-0.614
HMNAKVVAPIPGTVLSIDIKVGDVIKIGDRLLVLEAMKMENNIASEKSGTVTAVHVKVGQQVLQNELMIEL	-1.2
HMEDLAERLDNLSTMYAKMDPVRAAQVLLESKNKSENIEVLKRLKPKSLGLILENMPPREAYDYVSELQ	0.0298
HMAAQLAHVPAVTGRPLAEAQRILADNRLNAQVTQQPVAEPKLDGVVIAQKITEGTRTMRGATVPLIVGKY	0.148
HMDQTKYDAIITEAKKLTAEGQYKESEEKLATIPVSDLGKPHYSIVKETVEKLNNQNNEGLKRQEEVAVE	-0.0626
HMIGTPLSEWQKDAPEEITRDQIAELVILKFVTVEQLALASDAQLQRIGMGGVGLRERAKLYLNRK	-0.316

Sequence	soluble fraction (log2)
HMSGTMYATAEVNVRSTYSSDGTIYGTLSKGTAVEITGTTDNGWVRVKYNGTTAYVYADYLSWKAP	0.144
HMDDVIEVEGKVVEVLPNTKFIVELANSHKITAHISGKLRMNYIRIMKGDNVTVEMSPYDLTKGRIIWRS	-0.167
HMEWGEADFVRLDEALATLRTLSPRQAEVVDLRFFSELSLEETAATLGLSLATVKRDWSVARLYLQRALS	-0.815
HMNINVRNTGIKAVENNIINLSSDQRTFTWASNDRKLITVPFDENPYSALAAWFKTDEGIEVYQTIEKKL	-0.294
HMNMGKRFKELRKERKFTQQQLADRIGLAPSAISSYESGARYPSYDVLIKYSKIFHVTTDYLLG	0.148
HMKGIHDYITKDGLRVVKVHYSADPDKDVTTVEGKKWMAKALLGYPGGLEGAKWRREMEIDFNA	-0.258
HMLDYITLSPQELGKLLSAGNGDAAMVYLYMKATGDVTLKQAETQLGMTNQNLAWAESLLKRLGLMD	-0.501
HMETPDLTQLNPILDEYRGQKGAVIPVLQKAQKIYGFLPPEVLRRIAAGMRVPLSKIYGVATFYSQFY	-0.0265
HMNSRQPEEEALFELLAKNPYSDEQLEEIRIAIGSGISYKDVLVIADIKNTAKQMKKLRLKFTKDTG	0.118
HMENMTLGQRIQALRKQHGLSQEGLGERLGVSRQAISRWEMDGAVPEVDKLIAMARLFGVSLNQLLGVE	-0.0911
HMGQSKNERMLELVELLNKASRSYYQDAQEIMSNYEYDRLYDELQNLEKELGITLSNSPTVN	-1.3
HMSLIHEQSLKEIRIFINNLPESLRTAFTLREQDGLSYEEISKITDTPIGTVRSRIFRARESILEHINEEL	-0.599
HMLKEKETRALANFTNKFFGLDISEDLKPIALSELSKFKKTHKISNLEEFINSFQYDFQNEKILSLLDIFL	-0.879
HMDSDFIKIEVLFNERNRLDLKAMMEASGFTDRGQFLSIMADLTGDENWDRNLDRGDIFYLPRSFTI	-1.6
HMDDNMNEQWKMILNSIAKKGSVTRQETEKILGIGQTRAHVLLKAMIHAGMIKAVGDGKKRRYVR	≥ 0.43
HMQTNEAIINQAVQAAEAQNITTRSQAVDALKANGMTEAQARQLAVQRGISYDQLINELFPME	0.108
HMQKAQEYILVDIKGEVQTPGVYKLPVNSRVIDAIEASGGLTKKAVTTYINLSKTLKDENVIIINKKSEL	-0.0717
HMGKELSTVVVPDLTGLSVLEARNVLTKVGLQLTPSGAGIAFKQIPTPGTRLTLGATVTVYFVATGY	-1.27
HMTATKDLPFSTFITEVEKGNITSVDIKGNQIEGTFSNGAKFKTYSPNYPNLVERLADKGVAISAGPS	0.141

Source: the domain aggregation screens of Martell et al. (2025)
